Measured values: the DeepSol protein solubility set

experiment: soluble on expression in E. coli; label from the status in PepcDB or PDB records

Soluble on expression in E. coli, not soluble:
MGSDKIHHHHHHMGKARRGLQRGNGVHRHEAVRMFISLREIAPQGGLGPPRQLAGRRIAHVLDQAFRVALEVSARCHAVRVAHRVKSFVCTQQSRFVMGRQRLASMAHLRQNPPMAKLYFNYSTMNAGKSTLLLQASYNYIERGMQTYLLTANFDDRAGMGRIGSRIGIEAEADTYTQSDDLFAKIDARLKAGPCACVLVDEAQWMTRDQVWQLARAVDDLGVPVMCYGLRVDFRGELFPGSAALLALADEMREVRTICHCGRKATMVIRVGEDGNALAEGAQIEVGGNDRYISLCRKHFREAVGDVPV
MGSDKIHHHHHHMGLLLKTAASPFACSSGMQNFIANPELESYLRLNRAACGEWTLALQDLLGCSGLACDLSRPKEEVGSLSALGVGGGLVAALSVRQGLELQHCRLESVLLVFPVQGHCELLSDGAAANTLLPFQLILPGQTFSLRVTAESRLLLLMPAEQPQAVQLAAATSEAITLSIQRFLYQAGFLQDHHQGCQAAETVLREVREILAGSSGVTKVTEAVPEPDRRLLKAISKIRTEPDWPFDLQELSSHAGVSERNLYYLMKRQTGMTPYRYYQRCRLIRVRRRLVDCQCAVPHISRYAGDEGFSHFGRFAALYREHFGELPSETVQWRRRLQAQELLAPALS
MGSDKIHHHHHHMGRRLRVEYLGAMYHVVQRGNNREFIFGRPDERDYLIEQVGNAVKVDGVTVFAYVVMSNHYHLLLRTDGEFLSKVMHRVNTRYSRFFNCDSGRDRTGVVFEGRYKAILVQNDDYLLSLVRYIHRNPLRAGIVSRFCDYRWSSDACYRQQGNGPGGGDFVNCDLILRMFSDKKQIALREYKRFMENDDGKDWENIPCIGDDSFAQLAEPRKEKAGRVSLDEILINTGVDNEEFQLIKQGSRKRLLQKYKIAFTGEAIGQGYTMREIGQHIKLSHVAISHLFNSKQDSK
MGSDKIHHHHHHMGRRSHSRSLSIWTNGVRVGRWTVPARGEMELQYDVDWVRADVGRPLSLSLPFNLQNLPLKGERVANYFDNLLPDSDAIRRRVAERFRTGSVDPFDLLKAIGRDCVGAVQILEDEEIPEGFDRIEGVPLSEEDIERHLIETVTPRAFAAGRDPDADFRISLAGAQEKTAFLWWGGQWLAPRGATSTSHIFKLPLGLVGGRRADFSTSVDNEWLCLKLLKAYGLDVAEASIATFGQQRVLVVERFDRRVAPNGQWLMRLPQEDFCQVEGCSPLRKYENEGGPGLKALFATLRQSVNAAVDMRTLMAAQILFWLLRAPDGHAKNFSIQLLPRGRFQLTRLYDVMSAYPVLGDGANQWSPFEIKLAMALIGKNRHYEMHGIQRRHFNSTAQKVGYGPTAEPIIEDLLARTPAIIAAVQADLPQDFSPRVADSVLGGLAQAAKSLGAMMP
MGSDKIHHHHHHMGSETEYGIHAPSAPGANATMMSARVIQAYAQLTRQRAAGGAETRWDYTDEEPLHDARGWTLERNQADPSQLTDQPPVLDAEAVALAYGREELEQDGEDETGSLLMNMVLGNGARLYVDHAHPEYSSPEVTNPLDAVAWDAAGDLVALSAVRRMAADPQLPPVNLYKNNTDNKSVSYGSHENYLMPRAVPFGDIVRGLTPFFITRQIMCGAGRVGLGQDSSRPGYQISQRADFFEAEVGLETTIRRPIINTRDEPHATADKYRRLHVIIGDANLSQAANYLKFGTTAMVLSLIEAGLAPRVEVHEPVAALQAVSHDTSLTATLRLLDGRRVTALDLQWMYHEAAAKLAQDTGVGDSVDGDGHTHALLERWAATLTDLDSDRTAAASSVEWLAKLSLLEGYRQRDGLQWNDARLGLVDLQWADVRPEKGLYYRMLARGRMDRIVADETIARAMTEPPSDTRAYFRGRCVSSFSKDVVGASWDSVIFDVPGHGRLQRVPTREPLRGTEALTGGLFARHKDTGSFLAELLGQTPPPPPA
MGSDKIHHHHHHMGVEHMRGFSNEIILKRTLTLSDFTLRYHKRGITALQVIKAPSVSNVPVLLSGDNYGYFVMWDLVTKRPITHIEIEGNSHIIAFWWVETTNVLYILSKDSMLRIFELDSSTQLSIDLVRKLSQANKTDHLQWTKIYEMPINTLNFANFIIEAEVKPTKDNKSYRLVCCHTDDSETIDIYQIIEDSTFKLKRPFNNINFPRFLKQQNFLGISKDSKFGIIMRFAKLNDVIFLGYENGFVVGFKITFDEGLQRDIAELVHVSNDHYPNPILDMCVSGDELYSCSTDDFITKYKIPVNLQLETKYLRDDALLIKCPSSLRVSEPSKVHLPLKNIGHIDKVKDDYLVVSSWSGMTIVYNMRTSEVEQTFVKSKNNLVVSDSSMGDLTNGSGSNTESSSKSHNYKVGAMTCLESFDVQSDGLRLGQLRRIKALAKCNWCLIGYEDGTIKLNKI
